Measured values reported in US20230151091A1 (NEW YORK UNIVERSITY, published 2023).

How the values were obtained:
[1] = molecular target: T1, mouse MuSK (mouse, UniProt Q61006 22-494, limits assumed); assay: Biacore, MuSK on chip, association pH 7.4, dissociation pH 5.5
T1 construct: Coated on ELISA plates or on the Biacore chip; also called full length mouse MuSK; mouse MuSK (in house produced in HEK293 cells)
T1 sequence (looked up): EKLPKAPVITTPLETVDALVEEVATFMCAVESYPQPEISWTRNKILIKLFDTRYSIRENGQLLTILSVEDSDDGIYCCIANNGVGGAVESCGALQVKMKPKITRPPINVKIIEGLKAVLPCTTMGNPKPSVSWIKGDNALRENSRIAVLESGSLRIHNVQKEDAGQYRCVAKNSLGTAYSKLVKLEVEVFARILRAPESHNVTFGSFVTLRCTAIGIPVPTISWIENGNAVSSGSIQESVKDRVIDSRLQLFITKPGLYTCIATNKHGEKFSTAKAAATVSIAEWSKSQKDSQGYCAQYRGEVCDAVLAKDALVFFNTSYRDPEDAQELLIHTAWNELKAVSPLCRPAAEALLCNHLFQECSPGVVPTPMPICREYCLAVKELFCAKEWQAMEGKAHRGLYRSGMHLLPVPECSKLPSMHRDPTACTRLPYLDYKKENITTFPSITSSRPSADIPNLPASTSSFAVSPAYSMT
Summary of the method: (§1)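 MuSK was immobilized on the sensor chip at 200 RU, and antibody was injected at 66.7 nM. Association ran at pH 7.4 and dissociation at pH 5.5, and kinetic parameters were calculated from the sensorgrams.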

[2] = molecular target: T2, cynomolgus monkey MuSK (cynomolgus monkey, UniProt A0A2K5USF6 24-487); assay: as above
T2 sequence (A0A2K5USF6 entry or part of it): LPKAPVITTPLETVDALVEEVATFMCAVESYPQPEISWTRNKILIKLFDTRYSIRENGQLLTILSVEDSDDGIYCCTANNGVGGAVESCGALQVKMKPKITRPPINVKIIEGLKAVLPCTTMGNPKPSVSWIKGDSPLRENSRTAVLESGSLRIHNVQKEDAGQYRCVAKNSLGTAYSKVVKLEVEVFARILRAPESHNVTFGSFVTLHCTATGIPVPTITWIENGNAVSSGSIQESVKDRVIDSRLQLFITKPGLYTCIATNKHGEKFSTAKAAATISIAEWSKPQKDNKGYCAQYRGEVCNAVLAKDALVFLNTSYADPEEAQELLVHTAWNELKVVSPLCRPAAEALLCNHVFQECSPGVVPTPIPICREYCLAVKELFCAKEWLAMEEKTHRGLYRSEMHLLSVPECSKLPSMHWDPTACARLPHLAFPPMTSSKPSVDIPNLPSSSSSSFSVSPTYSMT
Summary of the method: as §1

[3] = molecular target: T3, rat MuSK (rat, UniProt Q62838 22-494, limits assumed); assay: as above
T3 construct: Coated on Biacore chip (200RU) or ELISA plate
T3 sequence (looked up): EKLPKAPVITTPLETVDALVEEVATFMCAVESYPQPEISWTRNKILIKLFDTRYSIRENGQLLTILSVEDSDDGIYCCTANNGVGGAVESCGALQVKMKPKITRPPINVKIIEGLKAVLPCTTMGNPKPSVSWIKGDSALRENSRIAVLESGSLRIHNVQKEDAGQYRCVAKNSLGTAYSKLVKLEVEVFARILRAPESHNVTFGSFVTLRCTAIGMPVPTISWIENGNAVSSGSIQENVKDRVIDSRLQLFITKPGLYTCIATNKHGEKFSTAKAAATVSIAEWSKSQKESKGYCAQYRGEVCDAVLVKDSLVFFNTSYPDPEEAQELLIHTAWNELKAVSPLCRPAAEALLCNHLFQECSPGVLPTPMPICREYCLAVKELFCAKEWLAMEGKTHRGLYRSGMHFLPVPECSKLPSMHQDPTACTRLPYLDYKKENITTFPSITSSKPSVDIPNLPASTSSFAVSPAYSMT
Summary of the method: as §1

[4] = molecular target: T1, mouse MuSK; assay: Biacore, MuSK on chip (200RU), 66.7 nM mAb, dissociation pH 7.4
Summary of the method: (§2)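 Sensor chip coated in parallel with cynomolgus monkey, rat and mouse MuSK. Antibody applied at a single concentration; association and dissociation kinetic parameters calculated from the sensorgrams.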

[5] = molecular target: T2, cynomolgus monkey MuSK; assay: as above
Summary of the method: as §2

[6] = molecular target: T3, rat MuSK; assay: as above
Summary of the method: as §2

B1: 3B2 (antibody, V domains shown)
VH: ELQLVESGGGLVQPGGSLRLSCAASGFTFDDYGMSWVRQAPGKGLEWVSAIPWNGGSTYYKESVKGRFTISRDNAKKTLYLQMNSLKSEDTAVYYCAKRSGRIAFGALDAWGQGTLVTVSS
VL: QAVVTQEPSLSVSPGGTVTLTCGLSSGSVTSSNYPDWYQQTPGQAPRGLIYSTDSRHSGVPSRFSGSISGNKAALTITGAQSEDEADYYCGLYMYSGSKNYVFGGGTKLTVL
notes: human IgG1 with the LALA mutations (L234A, L235A); produced in HEK293 cells; also called 3B2 mAb; parental 3B2 Ab
[1]
  R0: 194 RU
  koff: 0.00296 s⁻¹
  kon: 1.05e+06 M⁻¹ s⁻¹
[2]
  R0: 149 RU
  koff: 0.00317 s⁻¹
  kon: 740000 M⁻¹ s⁻¹
[3]
  R0: 174 RU
  koff: 0.0062 s⁻¹
  kon: 980000 M⁻¹ s⁻¹
[4]
  R0: 195 RU
  koff: 0.00061 s⁻¹
  kon: 1.13e+06 M⁻¹ s⁻¹
[5]
  R0: 143 RU
  koff: 0.00097 s⁻¹
  kon: 790000 M⁻¹ s⁻¹
[6]
  R0: 162 RU
  koff: 0.00186 s⁻¹
  kon: 1.14e+06 M⁻¹ s⁻¹
